Data published in article PMC12432433.

Legend:
[1] = target: LbXyn43B/Thr274Ala (Levilactobacillus brevis DSM 1269); assay: SEC; Sephacryl S-300 (110 mL), 0.1 mL/min, 50 mM sodium phosphate, 150 mM NaCl, pH 7.0; calibrated with molecular weight standards of 20-700 kDa; apparent molecular mass
[2] = target: LbXyn43B/Thr274Ala (Levilactobacillus brevis DSM 1269); assay: SEC-MALS; OMNISEC multi-detection SEC: Superdex 200 Increase 10/300 GL, light scattering (RALS 90°, LALS 7°), refractive index, viscometer, UV/VIS; 50 µL of 4.5 mg/mL injected in triplicate; 50 mM sodium phosphate, pH 7, 150 mM NaCl; 0.5 mL/min
[3] = target: β-D-xylosidase LbXyn43B from Levilactobacillus brevis DSM1269 (Levilactobacillus brevis DSM 1269); assay: crystal structure; X-ray, 1.9 Å, space group P 1 21 1, four chains (A-D); crystals from 27-29% PEG 1500, 60-140 mM malonate-imidazole-borate buffer, pH 4.0-4.5, 4°C
[4] = target: β-D-xylosidase LbXyn43B from Levilactobacillus brevis DSM1269 (Levilactobacillus brevis DSM 1269); assay: SEC; Sephacryl S-300 (110 mL), 0.1 mL/min, 50 mM sodium phosphate, 150 mM NaCl, pH 7.0; calibrated with molecular weight standards of 20-700 kDa; apparent molecular mass
[5] = target: β-D-xylosidase LbXyn43B from Levilactobacillus brevis DSM1269 (Levilactobacillus brevis DSM 1269); assay: SEC-MALS; OMNISEC multi-detection SEC: Superdex 200 Increase 10/300 GL, light scattering (RALS 90°, LALS 7°), refractive index, viscometer, UV/VIS; 50 µL of 4.5 mg/mL injected in triplicate; 50 mM sodium phosphate, pH 7, 150 mM NaCl; 0.5 mL/min

| stoichiometry N [1] | fraction of sample in peak 1 (tetramer) [2] | stoichiometry N [2] | stoichiometry N [3] | stoichiometry N [4] | fraction of sample in peak 1 (tetramer) [5] | stoichiometry N [5] | Substance |
| --- | --- | --- | --- | --- | --- | --- | --- |
| 3 | 91.3% | 4 | – | – | – | – | LbXyn43B/Thr274Ala (enzyme) |
| – | – | – | 4 | 4 | 84.9% | 4 | β-D-xylosidase LbXyn43B from Levilactobacillus brevis DSM1269 (enzyme) |
